Results as given in the nanobody polyreactivity screen of Harvey et al. (2022).

assay: yeast display, Sf9 membrane polyspecificity reagent, FACS + sequencing; frameworks hold sequencing errors
In short: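 After 36–48 hours of galactose induction, yeast (Saccharomyces cerevisiae BJ5465) displaying a synthetic nanobody library were stained at 4 °C for 1 hour with 10% biotinylated, detergent-solubilized Sf9 membrane reagent. Streptavidin microbeads enriched the stained cells before FACS sorting into low and high (top ~1%) gates on anti-HA and streptavidin fluorescence. Each clone's polyreactivity label reflects its gate of origin.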

Row | Sequence | polyreactivity (PSR sort gate)
1 | QVQLVESGGGLVQAGGSLRLSCAASGSTFPYYAMGCYRQAPGKERELVAAISWSDANTYYADSVKGRFTISRDNAKNTVYLQMNSLKPEDTAVYYCAAEPYDRYVPYTGYGLNYWGQGTQVTVSS | low polyreactivity
2 | QVQLVESGGGLVQAGGSLRLSCAASGSIFLGYTMGWSRQAPGKERELVAAINSSGGSTYYADSVKGRFTISRDNAKNTVYLQMNSLKPEDTAVYYCAVANSILLFDSWGQGTQVTVSS | low polyreactivity
3 | HVQLVESGGGLVQAGGSLRLSCAASGSIFIKYAMGWYRQAPGKERELVAAISRRGGSTYYADSVKGRFTISRDNAKNTVYLQMNSLKPEDTAVYYCAAVNIRFGYWGQGTQVTVSS | high polyreactivity
4 | QVQLVESGGGLVQAGGSLRLSCAASGIIFYKNAMGWYRQAPGKDRELVAAISGSGGRTYYADSVTGRFTISRDNGKNTVYFQMNSLKPEDTAVYYCAARQPYRHGYESWGQGSQVTVSS | high polyreactivity
5 | QVQLVESGGGLVQAGGSLRLSCAASGRTFRLNAMGWYRQAPGKERELVAAITLGGGRTYYADSVKGRFTISRDNAKNTVYLQMNSLKPEDTAVYYCNKVKRSYYYVDTDYWGQGTQVTVSS | high polyreactivity
6 | QVQLVESCGGLVQAGCSLRLSCAASGSIRYYPMGWYRQAPGKERELVAGITRNGGSTYYADSVKGRFTISRDNAKITVYLQMNSLKPEDTAVYYFAAGFTTRRGEYNYWGQGTQVTVSS | high polyreactivity
7 | QGQLEESGGGLVQAGGSLRLSCAASGITFNDYTMGWYRQAPGKEMELVAVITKTGSRTYYADSVKGRFTISRDNAKNTVYLQMNSLKPEDTAVYYCNALYYIHYYQGYGYWGQGTQVTVSS | high polyreactivity
8 | QVQLVESGGGLVQAGGSLRLSCAASGFTSWQYAMGWYRQAPGKERELVAAISVSGASTYYADSVKGRFTISRDNAKNTVYLQMNSLKPEDTAVYYCAAAYVRYPTTRYYYWGQGTQVTVSS | high polyreactivity
9 | QVQLVETGGGLVQAGGSLRLSCAASGSIADVYAMGWYRQAPGKERELVAAITSGASTYYADSVKGRFTISRDNAKNTVYLQMNSLKPEDTAVYYCTKSAAITGNGHMDYWGQGTQVTVSS | low polyreactivity
10 | QVQLVESGGGLVQAGGSLRLSCAASGRIFYPYAMGWYRQAPGKERELVAAISWNGGRTYYADSVKGRFTISRDNAKNTVYLQMNSLKPEDTAVYYCNAGGYSRVTQRFFHKYDYWGQGTQVTVSS | high polyreactivity
11 | QVQLVESGGGLVQAGGSLRLSCAASGFTFYIYAMGWYRQAPGKERELVAAITTSGDSTYYADSVKGRFTISRDNAKNTVYLQMNSLKPEDTAVYYCAAEYWYTYSWGQGTQVTVLS | low polyreactivity
12 | QVQLVESGGGLVQAGGSLRLSCAASGLTIGSNVMGWYRQAPGKERELVAAISQSGGRTYYADSVKGRFTISRDNAKNTVYLQMNSLKQEDTAVYYCAKRLRSFYGRPMGDYWGQGTQVTVSS | high polyreactivity
13 | QVQLVESGGGLVQAGGSLRLSCAASGRTLYYYAMGWYRQAPGKERELVARISSRGGSTYYADSVKGRFTISRDNAKNTVYLQMNSLKPEDTAVYYCAADGPGTSEDDYWGQGTQVTVSS | high polyreactivity
14 | QVQLVESGGGLVQAGGSLRLSSAASGRTFSRYVMGWSRQAPGKERELVATISRSGGSTFYADSVKGRFTISRDNAKNTVYLQMNSLKPEDTAVYYCNKKVQGYQVTYGYWGQGTQVTVSS | high polyreactivity
15 | QVQLVESGGGLVQAGGSLRLSCAASGRIFYQNAMGWYRQAPGKERELVAAISRGDSTYYADSVRGRFTSSRDNAKNTVFLQMNSLKPEDTAVYYCAARRFSYWGKYGYWGQGTQVTVSS | high polyreactivity
16 | QVQLVESGGGLVQAGGSLRLTCAASGRTFSVNAMGWYRQAPGKEREFVAAIRTSGGSTSYADSVKVRFTISRDNAKYTVFLQMSSLKPEDTAVYYCAADYGGTSYVRGTVGRKYDYWGQGTQVTVSS | high polyreactivity
17 | QVQLVESGGGLVQAGGSLRLSCAASGITFRYYAMGRYRQAPGKERELVAAITRSGSTTYADSVKGRFTISRDNAKNTVYLQMNSLKPVDTAVYYCAVDYYYLTGGVDYWGQGTQVTVSS | low polyreactivity
18 | QVQLVESGGGLVQAGGSIRLSCAASGFIFRGNAMGWYRQAPGKERELVARISGSGDSTYYADSVKGRFTISRDNAKNTVYFQMNSQKPEATEVYDCNADVFPGVEAYDSTIEYYSWGQGTQVTVSS | low polyreactivity
19 | QVQLVESGGGLVQAGGSLRLSCAASGRTFRQYAMGWSRQAPGKERELVAGITASGGSTSYADSVKGRFTISRDNAKNTVYLQMNSLKPEDTAVYYCAKLSYLYRYDYWGQGTQVTVSS | high polyreactivity
20 | QVQLVESGGGVVQAGGSLRLSFAASGSTFPGNAMGWYRQAPGKERELVASISGGGDSTYYADSVKGRFTISRDNAKNTVYLQMNSLKPEDTADYYCAARSTRGHYTAYDYWGQGTQVTVSS | low polyreactivity
21 | QVQLVESGGGLVQAGGSLRLSCAASGRIFTLYAMGWYRQAPGTERELVAAITYTGANTYYADSVKGRFTISRDNAKNTVYLQMNSLKPEDTAVYYCAASGYYYDYWGQGTQVTVSS | high polyreactivity

Row | Sequence | polyreactivity (PSR sort gate)
22 | QVQLVESGGGLVQAGGSLRLSCAASGSIFSRYAMGWYRQAPGKERELVAAISRGGSTNYADSVKGRFTISRDNAMNTVYLQMNSLKPEDTAVYYCAADGGKNPVRYDYWGQGTQVTVSS | high polyreactivity
23 | QVQFVESGGGVVQAGGSLRLSCAASGNIPYWYAMGWSRPAPAKERELVAAISSRGNTYYADSVKGRFTISRDNAKNNVYLQMNSLKQEDTAVYYCAAYAGSFYYWGQGTQVTVSS | high polyreactivity
24 | QVQLVESGGGLVQAGGSLRLSCAASGSIFLQNAMGWYRQAPGKERELVARITTSGGSTYYADSVKGRFTISRDNAKNTVYLPMNSQKPEDTAVYYCAVRSRRQRGGIRGFDYGGQGTQVTVSS | high polyreactivity
25 | QVQLVESVGGLVQAGGSLRLSCAASGRTFFPYAMGWYRQAPGKEREFVAAITKTDDSTYYADSVKGRFTISRDNAKNTVYLQMNSLKPEDTAVYYCNAGDTQIRFYYWGQGTQVTVSS | low polyreactivity
26 | QVQLVESGGGLVQAGGSLRLSCAASGSTFGINAMGWSRQAPGKERELVAAINSGTRTYYADSVKGRFTISRDNAKNNVYLQMNSLKPEDTAVYYCAARGVVGASGYYYWGQGTQVTVSS | high polyreactivity
27 | QVQLVESGGGLVQAGGSLRLSSAASGFTFRGYGMGWYRQAPAKERELVAAITSSGGSTYYADSVKGRFTISRDNAKNTVYLQMNSLKPEDTAVYYCAADRYTRYRYNYWGQGTQVTVSS | high polyreactivity
28 | QVQLVESGGGLVQAGGSLRLSCAASGRIFSYYAMGWYRQAPGKERELVATISGSGGSTYYADSVKGRFTISRDNAKNTVYLQMNSLKPEDTAVYYCAATGFIFRGRVRAIPRRYNYWGQGTQVTVSS | high polyreactivity
29 | QVQLVESGGGLVQAGGSLRLRCAASGSTFINNAMGWYRQAPGKERELVAAISGSGVSTYYADSVKGRFTISRDNAKNTVYLQMNSLKPEDTAVYYCNKRYRNYFWYKPYSTKYEYWGQGTQVTVSS | high polyreactivity
30 | QVQLVESGGGLVQAGGSLRLSCSASGSIFVWYDMGWYRQAPGKERELVATISLSGVSTYYADSVKGRFTISRDNAKNTVYLQMNSLKPEDTAVYYCNKDDPVDGPLYFRKYDYWGQGTQVTVSS | low polyreactivity
31 | QVQLVESGGGLVQAGGSLRLSCAASGSTYQNAMGWYRQAPGKEREFVAAISWSGGSTYYADSVKGRFTISRDNAKNTVYLQMNSLKPEDTAVYYCAAYSYFSPWYDYWGQGTQVTVSS | high polyreactivity
32 | QVQLVESGGGLVQAGGSLRLSCAASGSIFYAYTMGWYRQAPGKERELVASITKSGGSTYYADSVKGRFTISRDNAKNTVYLQMNSLKPEDTAVYYCAAAFNRYGTTSYWYRHYYWGQGTQVTVSS | high polyreactivity
33 | QVQLVESGGGLVQAGGSLRLSCAASGSIFRRYAMGWYRPAPGTERELVAAISYSGGSTYYADSVKGRFTISRDNAKNTVYLQMNSLKPEDTAVYYCAADESRYDYWGQGTQVTVSS | high polyreactivity
34 | QVQLVESGGGLVQAGGSLRLSRAASGATFYFNAMGWYSQAHGKERELVAGITYSGDSTYYADSVKGRFTLSRDNAKNPVYLQMNSLKPEDTAVYYCAADVDYDLDGDYWGQGTQVTVSS | low polyreactivity
35 | QVQLVESGGGLVQAGGSLRLSCAASGIIFIFYDMGWYRQAPGKERELVATITSGTNTYADSVKGRFTISRDNAKNTVFLQMNSLKPEDTGVYYCAAGFSPASQLDYWGQGSQVTVSS | low polyreactivity
36 | QVQLVESGGGLVQAGGSLRLSCAASGSIFGKNAMGWYRQAPGKERELVASITWDGSSTYYADSVKGRFTISRDNAKNTVYLQMNSLKPEDTAVYYCNADYHVQYEYYPYDYWGQGTQVTVSS | low polyreactivity
37 | QVQLVESGGGLVQAGGSLRLSCAASGSIFRANAMGWYRQAPGKEREMVAAISYSGGSTYYADSVKGRFSISRDNAKNTVYLLMNSLKPEDTAVYYCAAEFLYASVYYSYWGQGTQVTVSS | high polyreactivity
38 | QVQLVESGGGLVQAGGSLRLSCAASGRTFGGYAMGWYRQAPGKERELVAAISRSGGSTRYADSVKGRFTISRDNAKNTVYLQMNSLKPEDTAVYYCAARQKYEILMEYWGQGTQVTVSS | high polyreactivity
39 | QLQLVESGGGLVQAGGSLRLSCAASGSTFRYYAMGWYRQAPGKERELVAAISRTGGSTYYADSVKVRFTISRDNAKNTVYLQMNSLKPEDTAVYYCNVRQFLNRYTSWDYRYHYDYWGQGSQVTVSS | high polyreactivity
40 | QVQLVESGGGLVQAGGSLRLSCAASGSTFDNYVMGWYRQAPGKERELVAAISRRGGNTYYADSVKGRFTISRDNAKNTVYLQMNSLKPEDTAVYYCAADPYGYGHWGDYWGQGTQVTVSS | low polyreactivity
41 | QVQLVESGGGLVQAGGSLRLSCAASGSTSVDYTMGLYRQAPGKERELVAAIDYNGDSTYYADSVKGRFTISRDNAKNTVYLQMNSLKPEDTAVYYCAADYLSFVVVKLYGYWGQGTQVTVSS | low polyreactivity
